Test results as given in US6475744 (GENERAL HOSPITAL CORPORATION A MASSACHUSETTS, dated 2002).

B1: mPER3-HA (other, mouse, UniProt O70361 1-1113, looked up, not shown: small tags and cut ends)
chain: MDPCGDPAVPGGDCPQTRGPGLQGASGQEGPLQGTCVDSSHSEHEDRNRMSEELIMVVQEMKKYFPAERHTKPSTLDALNYALRCVHSVQANSDFFQSLGPRGAHQADVTVYSLEDLTALASEHTSKNTDTFAAVFSFLSGRLVHISEQAALILNSKRGFLKSVHFVDLLAPQDVRAFYAHTAPTQLPFWNNWTQRASQYECAPAKPFFCRICGGGDREKRHYSPFRILPYLVHVHSSAQPEPEPCCLTLVEKIHSGYEAPRIPVDKRIFTTTHTPGCVFLEVDERAVPLLGYLPQDLIGTSILTYLHPEDRPLMVAIHQKVLKYAGHPPFEHSPVRFCTQNGEYVILDSSWSSFVNPWSRKVSFIIGRHKVRTSPLNEDVFATRIKKAASNDKDIAELQEQIHKLLLQPVHASASSGYGSLGSSGSQEQHVSITSSSESSGHCPEEGQHEQMTLQQVYASVNKIKNVGQQLYIESMARSSVKPVAETCVEPQGGDEQKDFSSSQTLKNKSTTDTGSGGNLQQEQPSSSYQQMNCIDSVIRYLTSYSLPALKRKCISCTNTSSSSEEAKPIPEVDSSQRDTEQLLDIRKQETTGPSTDIEGGAARTLSTAALSVASGISQCSCSSTSGHAPPLQSESVAVACKPWALRTKASHLAAGGFKHVGLTAAVLSAHTQKEEQNYVDRFREKILTSPYGCYLQQESRNRAQYSCVQAGSTAKHSRCAGSERQKHKRKKLPAPVDTSSPGAHLCPHVTGLLPDEQHWGPSASPSPLGAGLAFPSALVVPSQTPYLLPSFPLQDMASQGVGVSAAWGAAAGCPPLSAGPQAVAAFPSAYVDTLMTIFLHNAPLFPLWPPSFSPYPSLGAAGSSELAPLVPAMAPNPEPTTSGHSQRRVEENWEAHSEELPFISSRSSSPLQLNLLQEEMPAPSESADAVRRGAGPDAKHHCVTGPSGSRSRHCTSGELATATAQQESAAASGSSASSIYFSSTDYASEVSENRQRPQDRQRDEALPGAAEESIWRMIERTPECVLMTYQVPERGREEVLKQDLEKLQSMEQQQPLFSPAQREELAKVRSWIHSHTAPQEGHLQSCVACEDRGSVGDTAEVLEQHPAEDTS
notes: Expressed in COS7 cells from pcDNA 3.1; immunoprecipitated with anti-HA antibody
B2: mTIM-V5 (other, not shown: small tags and cut ends)
chain: MDLYMMNCELLATCSALGYLEGGTYHKEPDCLESVKDLIRYLRHEDETRDVRQQLGAAQILQSDLLPILTQHRQDKPLFDAVIRLMVNLTQPALLCFGSVPKDSSVRHHFLQVLTYLQAYKEAFASEKAFGVLSETLYELLQLGWEDRQEEDNLLIERILLLVRNILHVPANLEQEKSIDDDASIHDRLLWAIHLSGMDDLLLFLSSSSAEQQWSLHVLEIISLMFRDQTPEQLAGVGQGRLAQERSTDVAELEVLRQREMAEKRARALQRGNRHSRFGGSYIVQGLKSIGEKDVVFHKGLHNLQNYSSDLGKQPRRVPKRRQAAQELSVHRRSVLNVRLFLRDFCSEFLENCYNPLMGAVKDHLLRERAQQHDETYYMWAMAFFMAFNRAATFRPGLVSETLSIRTFHFVEQNLTNYYEMMLTDRKEAASWARRMHLALKAYQELLATVNEMDMCPDEAVRESSRIIKNNIFYMMEYRELFLALFRKFDERYHPRSFLRDLVETTHLFLKMLERFCRSRGNLMVQNKRKKRKKKKKVQDQGVAFSQSPGELEAMWPALAEQLLQCAQDPELSVDPVVPFDAASEVPVEEQRVEAMVRIQDCLTAGQAPQALALLRSAREVWPEGNAFGSPVISPGEEMQLLKQILSTPLPRQQEPEEGDAEEEEEEEEEEELQVVQVSEKEFNFLEYLKRFASSTIVRAYVLLLRSYRQNSAHTNHCIAKMLHRLAHGLGMEALLFQLSLFCLFNRLLSDPAAAAYKELVTFAKYIIGKFFALAAVNQKAFVELLFWKNTAVVREMTQGYGSLDSGSSSHRAPLWSPEEEAQLQELYLAHKDVEGQDVVETILAHLKVVPRTRKQVIHHLVRMGLADSVKEFQKRKGTQIVLWTEDQELELQRLFEEFRDSDDVLGQIMKNITAKRSRARVVDKLLALGLVSERRQLYKKRRKKLAPSCMQNGEKSPRDPWQEDPEEEDEHLPEDESEDEESEEGLPSGQGQGSSSLSAENLGESLRQEGLSAPLLWLQSSLIRAANDREEDGCSQAIPLVPLTEENEEAMENEQFQHLLRKLGIRPPSSGQETFWRIPAKLSSTQLRRVAASLSQQENEEEREEEPEPGVPGEQGPSEEHRTEALRALLSARKRKAGLGPTEEEATGEEEWNSAPKKRQLLDSDEEEDDEGRRQAVSGTPRVHRKKRFQIEDEDD
notes: the construct was made from the coding region of AF071506; Printed once as 'mTIM-VS', read as V5; also called mTIM-VS
B3: mCRY1-HA (other, mouse, UniProt P97784 1-606, looked up, not shown: small tags and cut ends)
chain: MGVNAVHWFRKGLRLHDNPALKECIQGADTIRCVYILDPWFAGSSNVGINRWRFLLQCLEDLDANLRKLNSRLFVIRGQPADVFPRLFKEWNITKLSIEYDSEPFGKERDAAIKKLATEAGVEVIVRISHTLYDLDKIIELNGGQPPLTYKRFQTLVSKMEPLEMPADTITSDVIGKCMTPLSDDHDEKYGVPSLEELGFDTDGLSSAVWPGGETEALTRLERHLERKAWVANFERPRMNANSLLASPTGLSPYLRFGCLSCRLFYFKLTDLYKKVKKNSSPPLSLYGQLLWREFFYTAATNNPRFDKMEGNPICVQIPWDKNPEALAKWAEGRTGFPWIDAIMTQLRQEGWIHHLARHAVACFLTRGDLWISWEEGMKVFEELLLDADWSINAGSWMWLSCSSFFQQFFHCYCPVGFGRRTDPNGDYIRRYLPVLRGFPAKYIYDPWNAPEGIQKVAKCLIGVNYPKPMVNHAEASRLNIERMKQIYQQLSRYRGLGLLASVPSNSNGNGGLMGYAPGENVPSCSSSGNGGLMGYAPGENVPSCSGGNCSQGSGILHYAHGDSQQTHSLKQGRSSAGTGLSSGKRPSQEEDAQSVGPKVQRQSSN

Assays:
[1] = target: B2; assay: co-immunoprecipitation from co-transfected COS7 cells, anti-HA IP, anti-V5 blot
Experimental: (§1) Subsequently, the beads were washed four times (400 μl binding buffer for 10 min. per wash), mixed with 5 μl of 4×sodium dodecyl sulfate (SDS) gel loading buffer, boiled, and centrifuged. The supernatant was analyzed by SDS-polyacrylamide gel electrophoresis (PAGE) and western blotted as follows. Total protein (5 μg) from COS7 cells was extracted as described above, separated by SDS-PAGE, and transferred to a nitrocellulose membrane using a semi-dry blotting apparatus. Membranes were blocked with 5% non-fat milk. Blots were incubated with either the mouse anti-HA antibody (1:10,000) or the mouse anti-V5 antibody (1:5,000) overnight at 4EC. A goat anti-mouse horseradish peroxidase secondary antibody (1:10,000) was used in combination with enhanced chemiluminescence (NEN) to detect proteins.
(§2) Following detection of epitope-tagged proteins with one antibody, the blots were stripped in stripping buffer (62.5 mM Tris-HCl (pH 6.7), 100 mM 2-mercaptoethanol, 2% SDS) at 50EC for 30 minutes. The membrane was washed extensively (20 mM Tris, pH 7.6, 137 mM NaCl, 0.05% Tween-20) then blocked again and processed for detection of the second epitope-tagged protein.

[2] = target: T1, mPER1-HA (mouse, UniProt O35973 1-1291); assay: as above
T1 construct: Expressed in COS7 cells; used in place of mPER3-HA in co-immunoprecipitation
T1 sequence (O35973 whole entry): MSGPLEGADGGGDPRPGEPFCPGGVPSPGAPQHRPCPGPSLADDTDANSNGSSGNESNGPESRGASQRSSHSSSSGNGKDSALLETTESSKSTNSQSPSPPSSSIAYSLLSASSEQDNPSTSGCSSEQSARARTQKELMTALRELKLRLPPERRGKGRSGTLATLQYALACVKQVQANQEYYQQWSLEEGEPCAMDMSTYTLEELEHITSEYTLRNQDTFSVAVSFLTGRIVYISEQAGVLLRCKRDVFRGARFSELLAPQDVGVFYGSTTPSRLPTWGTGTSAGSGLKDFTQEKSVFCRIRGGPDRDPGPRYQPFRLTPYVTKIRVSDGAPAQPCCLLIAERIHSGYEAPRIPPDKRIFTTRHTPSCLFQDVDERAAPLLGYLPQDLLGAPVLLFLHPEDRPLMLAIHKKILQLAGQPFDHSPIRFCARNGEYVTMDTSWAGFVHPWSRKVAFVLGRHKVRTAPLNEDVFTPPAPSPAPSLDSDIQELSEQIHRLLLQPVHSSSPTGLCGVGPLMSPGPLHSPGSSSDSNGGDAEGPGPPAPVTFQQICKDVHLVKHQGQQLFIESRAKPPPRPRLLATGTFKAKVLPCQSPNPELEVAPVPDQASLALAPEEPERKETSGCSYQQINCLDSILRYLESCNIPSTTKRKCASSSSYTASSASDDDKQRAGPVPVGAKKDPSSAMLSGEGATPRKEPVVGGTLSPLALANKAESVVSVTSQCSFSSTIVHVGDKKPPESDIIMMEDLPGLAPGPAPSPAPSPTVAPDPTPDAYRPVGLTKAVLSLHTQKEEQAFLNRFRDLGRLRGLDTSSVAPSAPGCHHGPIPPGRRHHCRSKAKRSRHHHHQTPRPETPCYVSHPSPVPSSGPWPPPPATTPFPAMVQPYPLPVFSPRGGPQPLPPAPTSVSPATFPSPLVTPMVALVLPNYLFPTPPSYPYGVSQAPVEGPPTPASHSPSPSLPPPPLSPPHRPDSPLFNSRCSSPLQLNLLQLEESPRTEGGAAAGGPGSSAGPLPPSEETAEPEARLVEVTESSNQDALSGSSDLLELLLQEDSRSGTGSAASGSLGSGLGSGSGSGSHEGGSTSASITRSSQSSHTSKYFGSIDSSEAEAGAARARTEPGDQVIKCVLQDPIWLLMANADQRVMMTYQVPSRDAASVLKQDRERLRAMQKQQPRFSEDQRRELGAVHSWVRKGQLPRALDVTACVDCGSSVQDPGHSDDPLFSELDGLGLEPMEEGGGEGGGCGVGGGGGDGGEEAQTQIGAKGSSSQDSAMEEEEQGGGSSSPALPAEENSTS
Experimental: as §1, §2

[3] = target: T2, βgalactosidase (UniProt P00722 1-1024 = β-galactosidase, limits assumed); assay: co-immunoprecipitation from co-transfected COS7 cells, anti-HA IP
T2 construct: Construct not described; also called specificity control
T2 sequence (P00722 whole entry): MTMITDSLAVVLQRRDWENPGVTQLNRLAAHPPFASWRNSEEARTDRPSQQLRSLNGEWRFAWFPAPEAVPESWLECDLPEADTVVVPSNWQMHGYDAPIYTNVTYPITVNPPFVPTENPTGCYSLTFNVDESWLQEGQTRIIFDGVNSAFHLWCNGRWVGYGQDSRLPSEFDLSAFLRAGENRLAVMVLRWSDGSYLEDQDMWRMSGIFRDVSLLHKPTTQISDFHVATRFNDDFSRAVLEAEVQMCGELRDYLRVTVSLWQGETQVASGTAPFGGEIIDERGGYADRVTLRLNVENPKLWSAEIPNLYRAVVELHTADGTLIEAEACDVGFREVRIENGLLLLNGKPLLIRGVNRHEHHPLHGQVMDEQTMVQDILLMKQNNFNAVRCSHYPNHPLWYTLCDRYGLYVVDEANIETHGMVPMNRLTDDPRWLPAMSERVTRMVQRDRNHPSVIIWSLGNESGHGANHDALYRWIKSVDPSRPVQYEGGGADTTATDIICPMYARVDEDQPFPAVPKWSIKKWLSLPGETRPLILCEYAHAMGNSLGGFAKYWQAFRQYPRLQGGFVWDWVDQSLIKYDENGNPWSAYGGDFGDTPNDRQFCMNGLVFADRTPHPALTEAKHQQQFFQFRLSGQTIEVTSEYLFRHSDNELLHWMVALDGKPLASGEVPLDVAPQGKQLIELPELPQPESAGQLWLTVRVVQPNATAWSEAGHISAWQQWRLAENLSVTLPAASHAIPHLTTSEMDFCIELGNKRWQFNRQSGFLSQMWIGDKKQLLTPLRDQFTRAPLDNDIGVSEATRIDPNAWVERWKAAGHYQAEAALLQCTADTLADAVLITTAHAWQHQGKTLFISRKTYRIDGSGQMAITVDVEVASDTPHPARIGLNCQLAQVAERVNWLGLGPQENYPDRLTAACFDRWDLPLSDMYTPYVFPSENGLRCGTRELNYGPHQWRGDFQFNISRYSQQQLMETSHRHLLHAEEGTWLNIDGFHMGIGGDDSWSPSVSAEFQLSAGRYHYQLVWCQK

B1: no binding [1].

B2: no binding [2].

B3: no binding [3].
